{
  "source": "the RNAGym collection of RNA variant scans (doi:10.7554/elife.80360)",
  "parents": {"B1": {"name": "Twister Ribozyme (parent)", "chain": "AACACUGCCAAUGCCGGUCCCAAGCCCGGAUAAAAGUGGAGGGGGCGG"}},
  "data": [
    {"variants_of": "B1", "assay": "self-cleavage, relative activity (ratio to wild type); higher = more cleavage; co-transcriptional", "values": [
      {"variant": "A23G C26U", "self-cleavage": 0.101},
      {"variant": "A23G C27A", "self-cleavage": 0.147},
      {"variant": "A23G C27U", "self-cleavage": 0.14},
      {"variant": "A23G C46G", "self-cleavage": 0.405},
      {"variant": "A23G C46U", "self-cleavage": 0.579},
      {"variant": "A23G G28C", "self-cleavage": 0.246},
      {"variant": "A23G G28U", "self-cleavage": 0.184},
      {"variant": "A23G G29A", "self-cleavage": 0.307},
      {"variant": "A23G G29U", "self-cleavage": 0.425},
      {"variant": "A23G G36C", "self-cleavage": 0.0979},
      {"variant": "A23G G38A", "self-cleavage": 0.194},
      {"variant": "A23G G38U", "self-cleavage": 0.236},
      {"variant": "A23G G39A", "self-cleavage": 0.143},
      {"variant": "A23G G41C", "self-cleavage": 0.138},
      {"variant": "A23G G42C", "self-cleavage": 0.176},
      {"variant": "A23G G43A", "self-cleavage": 0.0981},
      {"variant": "A23G G43U", "self-cleavage": 0.0895},
      {"variant": "A23G G44C", "self-cleavage": 0.508},
      {"variant": "A23G G45C", "self-cleavage": 0.181},
      {"variant": "A23G G45U", "self-cleavage": 0.158},
      {"variant": "A23G G47U", "self-cleavage": 0.17},
      {"variant": "A23G G48A", "self-cleavage": 0.327},
      {"variant": "A23G G48C", "self-cleavage": 0.516},
      {"variant": "A23G G48U", "self-cleavage": 0.354},
      {"variant": "A23G U37C", "self-cleavage": 0.142},
      {"variant": "A23U A30G", "self-cleavage": 0.506},
      {"variant": "A23U A30U", "self-cleavage": 0.501},
      {"variant": "A23U A32C", "self-cleavage": 0.464},
      {"variant": "A23U A32U", "self-cleavage": 0.494},
      {"variant": "A23U A33U", "self-cleavage": 0.307},
      {"variant": "A23U A34C", "self-cleavage": 0.0966},
      {"variant": "A23U A34G", "self-cleavage": 0.0731},
      {"variant": "A23U A40C", "self-cleavage": 0.103},
      {"variant": "A23U C25G", "self-cleavage": 0.0583},
      {"variant": "A23U C26A", "self-cleavage": 0.234},
      {"variant": "A23U C26U", "self-cleavage": 0.153},
      {"variant": "A23U C27A", "self-cleavage": 0.0759},
      {"variant": "A23U C27G", "self-cleavage": 0.0875},
      {"variant": "A23U G24U", "self-cleavage": 0.0593},
      {"variant": "A23U G29A", "self-cleavage": 0.285},
      {"variant": "A23U G29C", "self-cleavage": 0.0484},
      {"variant": "A23U G29U", "self-cleavage": 0.315},
      {"variant": "A23U G36C", "self-cleavage": 0.12},
      {"variant": "A23U G39U", "self-cleavage": 0.119},
      {"variant": "A23U G41A", "self-cleavage": 0.126},
      {"variant": "A23U G41C", "self-cleavage": 0.0988},
      {"variant": "A23U G41U", "self-cleavage": 0.137},
      {"variant": "A23U G43C", "self-cleavage": 0.146},
      {"variant": "A23U G44A", "self-cleavage": 0.679},
      {"variant": "A23U G44U", "self-cleavage": 0.484},
      {"variant": "A23U G45A", "self-cleavage": 0.391},
      {"variant": "A23U G47A", "self-cleavage": 0.245},
      {"variant": "A23U G47C", "self-cleavage": 0.213},
      {"variant": "A23U G48A", "self-cleavage": 0.389},
      {"variant": "A23U G48C", "self-cleavage": 0.48},
      {"variant": "A23U G48U", "self-cleavage": 0.439},
      {"variant": "A23U U31A", "self-cleavage": 0.502},
      {"variant": "A23U U31C", "self-cleavage": 0.682},
      {"variant": "G24A A32C", "self-cleavage": 0.0703},
      {"variant": "G24A A33C", "self-cleavage": 0.0756},
      {"variant": "G24A A33G", "self-cleavage": 0.097},
      {"variant": "G24A A34G", "self-cleavage": 0.0576},
      {"variant": "G24A A35G", "self-cleavage": 0.0812},
      {"variant": "G24A A40C", "self-cleavage": 0.105},
      {"variant": "G24A C25G", "self-cleavage": 0.0958},
      {"variant": "G24A C26A", "self-cleavage": 0.123},
      {"variant": "G24A C26G", "self-cleavage": 0.0568},
      {"variant": "G24A C27U", "self-cleavage": 0.106},
      {"variant": "G24A C46G", "self-cleavage": 0.0598},
      {"variant": "G24A G28A", "self-cleavage": 0.0708},
      {"variant": "G24A G29C", "self-cleavage": 0.0767},
      {"variant": "G24A G36A", "self-cleavage": 0.0947},
      {"variant": "G24A G36U", "self-cleavage": 0.0791},
      {"variant": "G24A G38U", "self-cleavage": 0.126},
      {"variant": "G24A G39A", "self-cleavage": 0.106},
      {"variant": "G24A G39U", "self-cleavage": 0.0747},
      {"variant": "G24A G41C", "self-cleavage": 0.0854},
      {"variant": "G24A G41U", "self-cleavage": 0.082},
      {"variant": "G24A G42A", "self-cleavage": 0.0855},
      {"variant": "G24A G43A", "self-cleavage": 0.102},
      {"variant": "G24A G43C", "self-cleavage": 0.107},
      {"variant": "G24A G44A", "self-cleavage": 0.101},
      {"variant": "G24A G44C", "self-cleavage": 0.0736},
      {"variant": "G24A G45A", "self-cleavage": 0.122},
      {"variant": "G24A G47C", "self-cleavage": 0.11},
      {"variant": "G24A G48A", "self-cleavage": 0.121},
      {"variant": "G24A G48C", "self-cleavage": 0.112},
      {"variant": "G24A G48U", "self-cleavage": 0.0761},
      {"variant": "G24A U31A", "self-cleavage": 0.106},
      {"variant": "G24A U31C", "self-cleavage": 0.0777},
      {"variant": "G24A U37A", "self-cleavage": 0.0684},
      {"variant": "G24C A33C", "self-cleavage": 0.146},
      {"variant": "G24C A33U", "self-cleavage": 0.0768},
      {"variant": "G24C A34C", "self-cleavage": 0.0955},
      {"variant": "G24C A34U", "self-cleavage": 0.0578},
      {"variant": "G24C A35C", "self-cleavage": 0.0752},
      {"variant": "G24C A40U", "self-cleavage": 0.0978},
      {"variant": "G24C C25U", "self-cleavage": 0.114},
      {"variant": "G24C C26G", "self-cleavage": 0.0413},
      {"variant": "G24C C27A", "self-cleavage": 0.121},
      {"variant": "G24C C27G", "self-cleavage": 0.134},
      {"variant": "G24C C46G", "self-cleavage": 0.105},
      {"variant": "G24C C46U", "self-cleavage": 0.126},
      {"variant": "G24C G28A", "self-cleavage": 0.0981},
      {"variant": "G24C G28C", "self-cleavage": 0.135},
      {"variant": "G24C G28U", "self-cleavage": 0.0961},
      {"variant": "G24C G29C", "self-cleavage": 0.104},
      {"variant": "G24C G36U", "self-cleavage": 0.0983},
      {"variant": "G24C G39A", "self-cleavage": 0.0888},
      {"variant": "G24C G39U", "self-cleavage": 0.0664},
      {"variant": "G24C G41A", "self-cleavage": 0.109},
      {"variant": "G24C G42A", "self-cleavage": 0.105},
      {"variant": "G24C G42C", "self-cleavage": 0.0931},
      {"variant": "G24C G42U", "self-cleavage": 0.0759},
      {"variant": "G24C G43C", "self-cleavage": 0.0497},
      {"variant": "G24C G43U", "self-cleavage": 0.0968},
      {"variant": "G24C G44A", "self-cleavage": 0.0864},
      {"variant": "G24C G44C", "self-cleavage": 0.0955},
      {"variant": "G24C G45A", "self-cleavage": 0.0924},
      {"variant": "G24C G45C", "self-cleavage": 0.0828},
      {"variant": "G24C G47A", "self-cleavage": 0.0965},
      {"variant": "G24C G47C", "self-cleavage": 0.0946},
      {"variant": "G24C G48A", "self-cleavage": 0.0988},
      {"variant": "G24C G48C", "self-cleavage": 0.116},
      {"variant": "G24C G48U", "self-cleavage": 0.0846},
      {"variant": "G24C U31A", "self-cleavage": 0.0517},
      {"variant": "G24C U37A", "self-cleavage": 0.107},
      {"variant": "G24U A30C", "self-cleavage": 0.0633},
      {"variant": "G24U A32G", "self-cleavage": 0.113},
      {"variant": "G24U A32U", "self-cleavage": 0.0649},
      {"variant": "G24U A33C", "self-cleavage": 0.142},
      {"variant": "G24U A33G", "self-cleavage": 0.104},
      {"variant": "G24U A33U", "self-cleavage": 0.121},
      {"variant": "G24U A34U", "self-cleavage": 0.116},
      {"variant": "G24U A35C", "self-cleavage": 0.133},
      {"variant": "G24U A35U", "self-cleavage": 0.175},
      {"variant": "G24U A40G", "self-cleavage": 0.0745},
      {"variant": "G24U C25A", "self-cleavage": 0.115},
      {"variant": "G24U C25G", "self-cleavage": 0.104},
      {"variant": "G24U C25U", "self-cleavage": 0.0725},
      {"variant": "G24U C26A", "self-cleavage": 0.0928},
      {"variant": "G24U C26G", "self-cleavage": 0.0895},
      {"variant": "G24U C26U", "self-cleavage": 0.122},
      {"variant": "G24U C27U", "self-cleavage": 0.13},
      {"variant": "G24U C46A", "self-cleavage": 0.0884},
      {"variant": "G24U C46U", "self-cleavage": 0.0749},
      {"variant": "G24U G28A", "self-cleavage": 0.0754},
      {"variant": "G24U G28C", "self-cleavage": 0.0992},
      {"variant": "G24U G29A", "self-cleavage": 0.127},
      {"variant": "G24U G36A", "self-cleavage": 0.124},
      {"variant": "G24U G36C", "self-cleavage": 0.0879},
      {"variant": "G24U G38C", "self-cleavage": 0.103},
      {"variant": "G24U G39U", "self-cleavage": 0.0828},
      {"variant": "G24U G41A", "self-cleavage": 0.0908},
      {"variant": "G24U G41C", "self-cleavage": 0.0917},
      {"variant": "G24U G42A", "self-cleavage": 0.0906},
      {"variant": "G24U G42C", "self-cleavage": 0.0781},
      {"variant": "G24U G43C", "self-cleavage": 0.076},
      {"variant": "G24U G45A", "self-cleavage": 0.0796},
      {"variant": "G24U G45C", "self-cleavage": 0.0947},
      {"variant": "G24U G45U", "self-cleavage": 0.091},
      {"variant": "G24U G47A", "self-cleavage": 0.094},
      {"variant": "G24U G47U", "self-cleavage": 0.0704},
      {"variant": "G24U G48A", "self-cleavage": 0.0944},
      {"variant": "G24U G48U", "self-cleavage": 0.0921},
      {"variant": "G24U U31A", "self-cleavage": 0.113},
      {"variant": "G24U U37C", "self-cleavage": 0.0947}
    ]}
  ]
}
